Blank lines part the entries; values can stand above or below the molecule they belong to.
Key:
[1] = biological target: actin filaments of D. melanogaster S2 cells (lamellipodial actin ring, patches, filopodia) (D. melanogaster); test: TIRF imaging of a fixed S2 cell expressing mCherry-Lifeact stained with Alexa Fluor 488 phalloidin; panel a, lower cell
[2] = biological target: actin filaments of D. melanogaster S2 cells (lamellipodial actin ring, patches, filopodia) (D. melanogaster); test: TIRF imaging of a fixed S2 cell expressing mCherry-Lifeact stained with Alexa Fluor 488 phalloidin; panel a, upper cell
[3] = biological target: actin filaments of D. melanogaster S2 cells (lamellipodial actin ring, patches, filopodia) (D. melanogaster); test: TIRF imaging of S2 cells before and after blue light
[4] = biological target: F-actin (G-actin polymerized, filaments stabilized with phalloidin); test: cosedimentation with 0.5 µM phalloidin-stabilized F-actin, SDS-PAGE of the pellet, hyperbolic fit
[5] = biological target: actin filaments of D. melanogaster S2 cells (lamellipodial actin ring, patches, filopodia) (D. melanogaster); test: TIRF imaging of a repeatedly excited S2 cell; actin labeling ratio over time, panel f, recovery after the 1st excitation (black exponential fit)
[6] = biological target: actin filaments of D. melanogaster S2 cells (lamellipodial actin ring, patches, filopodia) (D. melanogaster); test: TIRF imaging of a repeatedly excited S2 cell; actin labeling ratio over time, panel f, recovery after the 3rd excitation
[7] = biological target: actin filaments of D. melanogaster S2 cells (lamellipodial actin ring, patches, filopodia) (D. melanogaster); test: TIRF imaging of an S2 cell expressing mCherry-LILAC, fixed under blue light and stained with Alexa Fluor 488 phalloidin; panel b, upper cell
[8] = biological target: actin filaments of D. melanogaster S2 cells (lamellipodial actin ring, patches, filopodia) (D. melanogaster); test: TIRF imaging of a live S2 cell; actin labeling ratio over time, panel B, recovery after the 4th blue-light excitation
[9] = biological target: actin filaments of D. melanogaster S2 cells (lamellipodial actin ring, patches, filopodia) (D. melanogaster); test: TIRF imaging of an S2 cell expressing mCherry-LILAC, fixed under blue light and stained with Alexa Fluor 488 phalloidin; panel b, lower cell
[10] = biological target: actin filaments of D. melanogaster S2 cells (lamellipodial actin ring, patches, filopodia) (D. melanogaster); test: cell-based or functional assay
[11] = biological target: actin filaments of D. melanogaster S2 cells (lamellipodial actin ring, patches, filopodia) (D. melanogaster); test: TIRF image of an S2 cell before blue-light excitation, panel a; outer and inner rings hand traced
[12] = biological target: actin filaments of D. melanogaster S2 cells (lamellipodial actin ring, patches, filopodia) (D. melanogaster); test: TIRF images of an S2 cell before and after blue-light excitation, printed in panel b
[13] = biological target: actin filaments of D. melanogaster S2 cells (lamellipodial actin ring, patches, filopodia) (D. melanogaster); test: TIRF image of the same S2 cell after blue-light excitation, panel b; outer and inner rings hand traced
[14] = biological target: actin filaments of D. melanogaster S2 cells (lamellipodial actin ring, patches, filopodia) (D. melanogaster); test: TIRF imaging of a repeatedly excited S2 cell; actin labeling ratio over time, panel f, recovery after the 2nd excitation
[15] = biological target: actin filaments of D. melanogaster S2 cells (lamellipodial actin ring, patches, filopodia) (D. melanogaster); test: TIRF imaging of a repeatedly excited S2 cell; actin labeling ratio over time, panel f, recovery after the 4th excitation
[16] = biological target: actin filaments of D. melanogaster S2 cells (lamellipodial actin ring, patches, filopodia) (D. melanogaster); test: TIRF imaging of a live S2 cell; actin labeling ratio over time, panel B, recovery after the 1st blue-light excitation (black exponential fit drawn on this one)
[17] = biological target: actin filaments of D. melanogaster S2 cells (lamellipodial actin ring, patches, filopodia) (D. melanogaster); test: TIRF imaging of a live S2 cell; actin labeling ratio over time, panel B, recovery after the 2nd blue-light excitation
[18] = biological target: actin filaments of D. melanogaster S2 cells (lamellipodial actin ring, patches, filopodia) (D. melanogaster); test: TIRF imaging of a live S2 cell; actin labeling ratio over time, panel B, recovery after the 3rd blue-light excitation

r (Pearson's correlation coefficient with the phalloidin image) [1]: 0.89
r (Pearson's correlation coefficient with the phalloidin image) [2]: 0.83
switching ratio (fold change of the actin labeling ratio, post/pre-excitation) [3]: 1
Molecule: mCherry-Lifeact expressed in Drosophila S2 cells (pMT-mCherry-Lifeact vector) (from UniProt Q08641 1-17)

Kd [4]: 3.9 µM
Molecule: mCherry-Lifeact, expressed in E. coli and purified (6×His-mCherry-TEV-Lifeact from the pET21-mCherry-Lifeact vector) (from UniProt Q08641 1-17)

τ (time constant of the decay of the actin labeling ratio after excitation) [5]: 71 s
τ (time constant of the decay of the actin labeling ratio after excitation) [6]: 61 s
r (Pearson's correlation coefficient with the phalloidin image) [7]: 0.6
τ (time constant of the decay of the actin labeling ratio after excitation) [8]: 59 s
r (Pearson's correlation coefficient with the phalloidin image) [9]: 0.62
dark state recovery time constant, from actin labeling ratio traces [10]: 63 s
ALR (actin labeling ratio, intensity outer / intensity inner) [11]: 0.39
ASR (actin switching ratio, ALR post / ALR pre) [12]: 2.02
ALR (actin labeling ratio, intensity outer / intensity inner) [13]: 0.79
τ (time constant of the decay of the actin labeling ratio after excitation) [14]: 73 s
τ (time constant of the decay of the actin labeling ratio after excitation) [15]: 59 s
τ (time constant of the decay of the actin labeling ratio after excitation) [16]: 71 s
τ (time constant of the decay of the actin labeling ratio after excitation) [17]: 73 s
τ (time constant of the decay of the actin labeling ratio after excitation) [18]: 61 s
switching ratio (fold change of the actin labeling ratio, post/pre-excitation) [3]: 1.6
B1: mCherry-LILAC expressed in Drosophila S2 cells (pMT vector) (designed binder, not shown: large carriers)
chain: GGSGGSGGSGEFLATTLERIEKNFVITDPRLPDNPIIFASDSFLQLTEYSREEILGRNCRFLQGPETDRATVRKIRDAIDNQTEVTVQLINYTKSGKKFWNLFHLQPMRDQKGDVQYFIGVQLDGTEHVRDAAEREAVMLAKKTAEEIDEAAMGVADLIKKFESISKEE

Second part, the molecule before the results:

B2: mCherry-LILAC T406A/T407A expressed in Drosophila S2 cells (pMT vector) (designed binder, not shown: large carriers)
chain: GGSGGSGGSGEFLAAALERIEKNFVITDPRLPDNPIIFASDSFLQLTEYSREEILGRNCRFLQGPETDRATVRKIRDAIDNQTEVTVQLINYTKSGKKFWNLFHLQPMRDQKGDVQYFIGVQLDGTEHVRDAAEREAVMLAKKTAEEIDEAAMGVADLIKKFESISKEE
dark state recovery time constant, from actin labeling ratio traces [10]: 50 s

B3: mCherry-LILAC I539E expressed in Drosophila S2 cells (pMT vector) (designed binder, not shown: large carriers)
chain: GGSGGSGGSGEFLATTLERIEKNFVITDPRLPDNPIIFASDSFLQLTEYSREEILGRNCRFLQGPETDRATVRKIRDAIDNQTEVTVQLINYTKSGKKFWNLFHLQPMRDQKGDVQYFIGVQLDGTEHVRDAAEREAVMLAKKTAEEEDEAAMGVADLIKKFESISKEE
switching ratio (fold change of the actin labeling ratio, post/pre-excitation) [3]: 1

B4: mCherry-LILAC I539E, expressed in E. coli and purified (6×His-mCherry-TEV-LILAC with I539E, pET21) (designed binder, not shown: large carriers; small tags and cut ends)
chain: HHHHHHGEFLATTLERIEKNFVITDPRLPDNPIIFASDSFLQLTEYSREEILGRNCRFLQGPETDRATVRKIRDAIDNQTEVTVQLINYTKSGKKFWNLFHLQPMRDQKGDVQYFIGVQLDGTEHVRDAAEREAVMLAKKTAEEEDEAAMGVADLIKKFESISKEE
Kd [4]: 3.4 µM
